# Assay results from US20260242478A1 (published 2026).
# Where no end group is shown, it is not given here.
# B1: Phage-1972 (peptide)
# peptide: PWHWCIPEWMCAEY
# notes: tested as crude clonal phage supernatant
# B2: Phage-1977 (peptide)
# peptide: MAQWCTPAWMCSGF
# notes: as for B1
# B3: Phage-1975 (peptide)
# peptide: FDNWCKPSWMCAGL
# notes: as for B1
# B4: Phage-1971 (peptide)
# peptide: VMNWCTPVWMCQGF
# notes: as for B1
# B5: Phage-1976 (peptide)
# peptide: TMHWCIPQWMCETG
# notes: as for B1
# B6: Phage-1966 (peptide)
# peptide: WDKWCRPAWMCEST
# notes: as for B1
# B7: Phage-1967 (peptide)
# peptide: DVKMCIPAWMCSFD
# notes: as for B1
# B8: Phage-2005 (peptide)
# peptide: VTKWCIPEWMCEYI
# modifications: cysteine pairing not given here; also: fused to phage pIII, pIII sequence and linker not given here
# notes: Peptide-180 library clone
# B9: Phage-1978 (peptide)
# peptide: SERWCIPTWMCQET
# notes: as for B1
# B10: Phage-1973 (peptide)
# peptide: FDKWCIPEWMCAVL
# notes: as for B1
# B11: Phage-1980 (peptide)
# peptide: LDKWCIPPWMCYSI
# notes: as for B1
# B12: Phage-2006 (peptide)
# peptide: LPHWCTPLWMCEGF
# modifications: cysteine pairing not given here; also: fused to phage pIII, pIII sequence and linker not given here
# notes: Peptide-180 library clone
# B13: Phage-1979 (peptide)
# peptide: LPKWCTPEWMCIGF
# notes: as for B1
# B14: Phage-1974 (peptide)
# peptide: LVKWCIPEWMCEVL
# notes: as for B1
# B15: Phage-1970 (peptide)
# peptide: EFKWCTPSWMCAHL
# notes: as for B1
# B16: Phage-1968 (peptide)
# peptide: YIKWCTPSWMCEAS
# notes: as for B1
# B17: Phage-1969 (peptide)
# peptide: VEKWCKPTWMCEMV
# notes: as for B1
# Columns and labels:
# [1] = target: T1, Anti-PSMA Fab (SEQ ID NOs: 19, 20); test: phage ELISA; biotinylated PSMA Fab on neutravidin plate, clonal phage supernatant, anti-M13 HRP detection;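 note: wells preincubated with PSMA antigen in blocking buffer or with blocking buffer only before clonal phage were added for a short incubation, then bound phage detected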
# T1 construct: In the phage ELISA the Fab was biotinylated and captured on neutravidin coated plates; also called 006 PSMA Fab
# Method: (§1) Clonal phage were harvested as crude supernatants and screened via standard ELISAs. […] Prior to the addition of clonal phage. wells were incubated with blocking buffer and PSMA antigen or blocking buffer alone. Without washing or aspirating, clonal phage supernatants were then added to the wells and incubated for a short time. Wells were then washed followed by detection of bound phage using a horse radish conjugated anti-M13 antibody.
# [2] = target: T1, Anti-PSMA Fab (SEQ ID NOs: 19, 20); test: phage ELISA; biotinylated PSMA Fab on neutravidin plate pre-incubated with PSMA antigen (competitor), anti-M13 HRP detection
# Method: as §1
# [3] = target: T2, Anti-PSMA Fab (SEQ ID NOs: 19, 20); test: phage binding ELISA on captured PSMA Fab; wells pre-incubated with PSMA antigen as competitor
# T2 construct: Biotinylated and captured on neutravidin coated plates in the phage ELISA; also called 006 PSMA Fab
# Method: as §1
# [4] = target: T2, Anti-PSMA Fab (SEQ ID NOs: 19, 20); test: phage binding ELISA; biotinylated PSMA Fab captured on neutravidin plate, clonal phage supernatant, anti-M13 HRP detection
# Method: as §1
# [5] = target: T3, Anti-PSMA Fab (SEQ ID NOs: 19, 20); test: phage binding ELISA; PSMA Fab on plate pre-incubated with PSMA antigen as competitor, anti-M13 HRP detection;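 note: crude clonal phage supernatants added without washing to wells preincubated with PSMA in blocking buffer, compared with wells receiving blocking buffer only, then bound phage detected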
# T3 construct: Biotinylated and captured on neutravidin coated plates in the phage ELISA; also called 006 PSMA Fab
# Method: as §1
# [6] = target: T3, Anti-PSMA Fab (SEQ ID NOs: 19, 20); test: phage binding ELISA; biotinylated PSMA Fab on neutravidin plate, clonal phage supernatant, anti-M13 HRP detection;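 note: wells were preincubated with blocking buffer either containing PSMA antigen or without it before crude phage supernatant was added, briefly incubated, then washed prior to detection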
# Method: as §1
binder,measurement,setting,value
"IDNWCRPLWMCHGF (cysteine pairing not given here; also: displayed as fusion to phage pIII, Peptide-180 library clone) [Phage-2004]","Phage binding ELISA, Anti-PSMA Fab signal",[1],1.85
same,"Phage binding ELISA, Anti-PSMA Fab signal in the presence of PSMA",[2],0.0907
B1,Anti-PSMA Fab signal in the presence of PSMA,[3],0.083
same,"Anti-PSMA Fab (SEQ ID NOs: 19, 20) signal",[4],1.9
B2,Anti-PSMA Fab signal in the presence of PSMA,[3],0.0721
same,"Anti-PSMA Fab (SEQ ID NOs: 19, 20) signal",[4],1.89
B3,Anti-PSMA Fab signal in the presence of PSMA,[3],0.0863
same,"Anti-PSMA Fab (SEQ ID NOs: 19, 20) signal",[4],1.89
LEMWCVPAWMCSGF [Phage-1964],"Phage binding ELISA, Anti-PSMA Fab signal in the presence of PSMA",[5],0.0771
same,"Phage binding ELISA, Anti-PSMA Fab (SEQ ID NOs: 19, 20) signal",[6],1.91
B4,Anti-PSMA Fab signal in the presence of PSMA,[3],0.115
same,"Anti-PSMA Fab (SEQ ID NOs: 19, 20) signal",[4],1.9
VVKWCLPPWMCTDF [Phage-1962],"Phage binding ELISA, Anti-PSMA Fab signal in the presence of PSMA",[5],0.0829
same,"Phage binding ELISA, Anti-PSMA Fab (SEQ ID NOs: 19, 20) signal",[6],1.91
MVKWCKPAWMCDVI [Phage-1965],"Phage binding ELISA, Anti-PSMA Fab signal in the presence of PSMA",[5],0.078
same,"Phage binding ELISA, Anti-PSMA Fab (SEQ ID NOs: 19, 20) signal",[6],1.91
"LEKLCIPSWMCEGM (cysteine pairing not given here; also: displayed as fusion to phage pIII, Peptide-180 library clone) [Phage-2002]","Phage binding ELISA, Anti-PSMA Fab signal",[1],1.85
same,"Phage binding ELISA, Anti-PSMA Fab signal in the presence of PSMA",[2],0.0942
B5,Anti-PSMA Fab signal in the presence of PSMA,[3],0.25
same,"Anti-PSMA Fab (SEQ ID NOs: 19, 20) signal",[4],1.89
"HEMWCRPAWMCDGF (cysteine pairing not given here; also: displayed as fusion to phage pIII, Peptide-180 library clone) [Phage-2000]","Phage binding ELISA, Anti-PSMA Fab signal",[1],1.85
same,"Phage binding ELISA, Anti-PSMA Fab signal in the presence of PSMA",[2],0.0635
WDKWCIPEWMCESM [Phage-1959],"Phage binding ELISA, Anti-PSMA Fab signal in the presence of PSMA",[5],0.0718
same,"Phage binding ELISA, Anti-PSMA Fab (SEQ ID NOs: 19, 20) signal",[6],1.92
B6,Anti-PSMA Fab signal in the presence of PSMA,[3],0.0851
same,"Anti-PSMA Fab (SEQ ID NOs: 19, 20) signal",[4],1.91
B7,Anti-PSMA Fab signal in the presence of PSMA,[3],0.0712
same,"Anti-PSMA Fab (SEQ ID NOs: 19, 20) signal",[4],1.91
B8,"Phage binding ELISA, Anti-PSMA Fab signal",[1],1.85
same,"Phage binding ELISA, Anti-PSMA Fab signal in the presence of PSMA",[2],0.0658
LENWCIPAWMCSGF [Phage-1957],"Phage binding ELISA, Anti-PSMA Fab signal in the presence of PSMA",[5],0.0656
same,"Phage binding ELISA, Anti-PSMA Fab (SEQ ID NOs: 19, 20) signal",[6],1.92
B9,Anti-PSMA Fab signal in the presence of PSMA,[3],0.0819
same,"Anti-PSMA Fab (SEQ ID NOs: 19, 20) signal",[4],1.89
B10,Anti-PSMA Fab signal in the presence of PSMA,[3],0.0682
same,"Anti-PSMA Fab (SEQ ID NOs: 19, 20) signal",[4],1.9
LVKWCTPAWMCEFI [Phage-1963],"Phage binding ELISA, Anti-PSMA Fab signal in the presence of PSMA",[5],0.0856
same,"Phage binding ELISA, Anti-PSMA Fab (SEQ ID NOs: 19, 20) signal",[6],1.91
"FEKWCVPIWMCRDS (cysteine pairing not given here; also: displayed as fusion to phage pIII, Peptide-180 library clone) [Phage-2003]","Phage binding ELISA, Anti-PSMA Fab signal",[1],1.85
same,"Phage binding ELISA, Anti-PSMA Fab signal in the presence of PSMA",[2],0.161
B11,Anti-PSMA Fab signal in the presence of PSMA,[3],0.0602
same,"Anti-PSMA Fab (SEQ ID NOs: 19, 20) signal",[4],1.89
FAKWCTPVWMCAGL (cysteine pairing not given here; also: displayed as fusion to phage pIII) [Phage-1956],"Phage binding ELISA, Anti-PSMA Fab signal in the presence of PSMA",[5],0.281
same,"Phage binding ELISA, Anti-PSMA Fab (SEQ ID NOs: 19, 20) signal",[6],1.92
"EVKWCTPAWMCEGF (cysteine pairing not given here; also: displayed as fusion to phage pIII, Peptide-180 library clone) [Phage-2001]","Phage binding ELISA, Anti-PSMA Fab signal",[1],1.85
same,"Phage binding ELISA, Anti-PSMA Fab signal in the presence of PSMA",[2],0.0605
FEKWCIPDWMCQVM [Phage-1960],"Phage binding ELISA, Anti-PSMA Fab signal in the presence of PSMA",[5],0.0817
same,"Phage binding ELISA, Anti-PSMA Fab (SEQ ID NOs: 19, 20) signal",[6],1.91
"NFHLCTPQWMCTGF (cysteine pairing not given here; also: displayed as fusion to phage pIII, Peptide-180 library clone) [Phage-1997]","Phage binding ELISA, Anti-PSMA Fab signal",[1],1.86
same,"Phage binding ELISA, Anti-PSMA Fab signal in the presence of PSMA",[2],0.0973
"IDKWCIPAWMCVSN (cysteine pairing not given here; also: displayed as fusion to phage pIII, Peptide-180 library clone) [Phage-1998]","Phage binding ELISA, Anti-PSMA Fab signal",[1],1.86
same,"Phage binding ELISA, Anti-PSMA Fab signal in the presence of PSMA",[2],0.0815
B12,"Phage binding ELISA, Anti-PSMA Fab signal",[1],1.85
same,"Phage binding ELISA, Anti-PSMA Fab signal in the presence of PSMA",[2],0.0658
B13,Anti-PSMA Fab signal in the presence of PSMA,[3],0.113
same,"Anti-PSMA Fab (SEQ ID NOs: 19, 20) signal",[4],1.89
B14,Anti-PSMA Fab signal in the presence of PSMA,[3],0.0751
same,"Anti-PSMA Fab (SEQ ID NOs: 19, 20) signal",[4],1.9
B15,Anti-PSMA Fab signal in the presence of PSMA,[3],0.128
same,"Anti-PSMA Fab (SEQ ID NOs: 19, 20) signal",[4],1.9
"IPKWCTPAWMCESM (cysteine pairing not given here; also: displayed as fusion to phage pIII, Peptide-180 library clone) [Phage-1999]","Phage binding ELISA, Anti-PSMA Fab signal",[1],1.86
same,"Phage binding ELISA, Anti-PSMA Fab signal in the presence of PSMA",[2],0.0609
B16,Anti-PSMA Fab signal in the presence of PSMA,[3],0.113
same,"Anti-PSMA Fab (SEQ ID NOs: 19, 20) signal",[4],1.9
B17,Anti-PSMA Fab signal in the presence of PSMA,[3],0.0976
same,"Anti-PSMA Fab (SEQ ID NOs: 19, 20) signal",[4],1.9
DGKWCIPAWMCVDM [Phage-1958],"Phage binding ELISA, Anti-PSMA Fab signal in the presence of PSMA",[5],0.0672
same,"Phage binding ELISA, Anti-PSMA Fab (SEQ ID NOs: 19, 20) signal",[6],1.92
EGIWCTPAWMCMGF [Phage-1961],"Phage binding ELISA, Anti-PSMA Fab signal in the presence of PSMA",[5],0.0798
same,"Phage binding ELISA, Anti-PSMA Fab (SEQ ID NOs: 19, 20) signal",[6],1.91
